# Source: patent US20170129954A1 (PROTHENA BIOSCIENCES, published 2017)
# Key:
# Test in all cases: shotgun mutagenesis library, immunofluorescence on BHK cells, triplicate, background-subtracted and normalized to WT
# [1] = molecular target: T1, human MCAM Y318A mutant (shotgun mutagenesis library, on BHK cells) (human, UniProt P43121 24-646)
# T1 chain: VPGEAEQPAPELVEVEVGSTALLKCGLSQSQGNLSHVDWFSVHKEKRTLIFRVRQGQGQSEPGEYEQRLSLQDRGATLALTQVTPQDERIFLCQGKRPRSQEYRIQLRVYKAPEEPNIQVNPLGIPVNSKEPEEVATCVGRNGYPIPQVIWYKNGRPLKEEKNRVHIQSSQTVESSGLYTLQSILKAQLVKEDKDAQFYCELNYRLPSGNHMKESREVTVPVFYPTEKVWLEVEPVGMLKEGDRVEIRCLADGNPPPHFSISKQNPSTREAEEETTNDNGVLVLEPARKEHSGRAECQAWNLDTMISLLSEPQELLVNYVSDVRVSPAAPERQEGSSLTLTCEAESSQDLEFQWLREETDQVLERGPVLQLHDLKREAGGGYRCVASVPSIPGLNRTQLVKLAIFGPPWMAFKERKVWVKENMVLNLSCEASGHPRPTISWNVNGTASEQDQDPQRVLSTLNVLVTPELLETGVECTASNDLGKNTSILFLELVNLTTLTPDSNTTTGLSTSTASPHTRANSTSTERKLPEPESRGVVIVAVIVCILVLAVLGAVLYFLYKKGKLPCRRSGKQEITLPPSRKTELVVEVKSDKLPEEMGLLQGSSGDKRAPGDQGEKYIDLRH
# Procedure: (§1) The mutation library was assayed for surface expression (mouse sera binding) and monoclonal antibody binding, in triplicate. Each raw data point was background-subtracted and normalized to the wild type MCAM reactivity values. The mean monoclonal antibody binding value for each clone is plotted as a function of its mean surface expression value (FIG. 1, gray diamonds). Thresholds of <30% monoclonal antibody reactivity and >50% mouse sera binding were applied to identify clones (FIG. 1, black diamonds) that were negative for monoclonal antibody binding but positive for surface expression.
# (§2) Residues involved in antibody binding were identified as those that were negative for monoclonal antibody binding (<30% WT) but positive for surface expression (>50% WT) (Table 4). The mean reactivity (and standard deviation) were determined for each critical residue.
# [2] = molecular target: T2, human MCAM C272A mutant (shotgun mutagenesis library, on BHK cells) (human, UniProt P43121 24-646)
# T2 chain: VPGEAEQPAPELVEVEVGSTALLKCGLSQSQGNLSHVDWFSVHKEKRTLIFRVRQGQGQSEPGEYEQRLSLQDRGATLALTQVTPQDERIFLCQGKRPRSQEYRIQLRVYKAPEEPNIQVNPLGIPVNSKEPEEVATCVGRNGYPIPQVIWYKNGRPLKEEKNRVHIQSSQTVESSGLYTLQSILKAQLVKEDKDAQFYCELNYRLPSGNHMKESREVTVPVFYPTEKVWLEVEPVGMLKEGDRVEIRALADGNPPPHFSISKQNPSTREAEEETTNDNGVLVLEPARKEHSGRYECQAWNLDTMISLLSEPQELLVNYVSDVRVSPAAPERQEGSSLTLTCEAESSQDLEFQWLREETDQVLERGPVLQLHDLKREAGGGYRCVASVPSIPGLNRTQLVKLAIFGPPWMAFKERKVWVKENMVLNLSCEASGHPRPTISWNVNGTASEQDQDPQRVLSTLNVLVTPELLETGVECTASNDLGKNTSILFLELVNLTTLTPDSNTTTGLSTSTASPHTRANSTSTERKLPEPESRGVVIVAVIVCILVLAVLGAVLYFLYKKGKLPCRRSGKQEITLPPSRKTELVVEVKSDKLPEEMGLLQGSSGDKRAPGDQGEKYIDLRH
# Procedure: as §1, §2
# [3] = molecular target: T3, human MCAM V340A mutant (shotgun mutagenesis library, on BHK cells) (human, UniProt P43121 24-646)
# T3 chain: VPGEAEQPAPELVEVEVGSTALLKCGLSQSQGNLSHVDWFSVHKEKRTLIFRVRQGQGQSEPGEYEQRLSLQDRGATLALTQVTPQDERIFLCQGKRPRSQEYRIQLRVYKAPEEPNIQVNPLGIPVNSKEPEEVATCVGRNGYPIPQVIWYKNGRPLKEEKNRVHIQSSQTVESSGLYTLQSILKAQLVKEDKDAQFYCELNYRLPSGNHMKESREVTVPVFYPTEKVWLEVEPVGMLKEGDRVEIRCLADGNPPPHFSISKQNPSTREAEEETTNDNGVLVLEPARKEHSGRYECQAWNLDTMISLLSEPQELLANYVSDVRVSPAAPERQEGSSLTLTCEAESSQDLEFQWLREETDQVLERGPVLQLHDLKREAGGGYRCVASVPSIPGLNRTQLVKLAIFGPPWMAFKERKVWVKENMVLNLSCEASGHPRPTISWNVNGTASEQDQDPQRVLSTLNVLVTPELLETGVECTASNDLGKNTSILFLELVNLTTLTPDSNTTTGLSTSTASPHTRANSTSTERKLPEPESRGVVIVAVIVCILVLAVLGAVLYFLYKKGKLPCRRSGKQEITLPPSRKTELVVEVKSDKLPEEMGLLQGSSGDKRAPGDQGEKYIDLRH
# Procedure: as §1, §2
# [4] = molecular target: T4, human MCAM C320A mutant (shotgun mutagenesis library, on BHK cells) (human, UniProt P43121 24-646)
# T4 chain: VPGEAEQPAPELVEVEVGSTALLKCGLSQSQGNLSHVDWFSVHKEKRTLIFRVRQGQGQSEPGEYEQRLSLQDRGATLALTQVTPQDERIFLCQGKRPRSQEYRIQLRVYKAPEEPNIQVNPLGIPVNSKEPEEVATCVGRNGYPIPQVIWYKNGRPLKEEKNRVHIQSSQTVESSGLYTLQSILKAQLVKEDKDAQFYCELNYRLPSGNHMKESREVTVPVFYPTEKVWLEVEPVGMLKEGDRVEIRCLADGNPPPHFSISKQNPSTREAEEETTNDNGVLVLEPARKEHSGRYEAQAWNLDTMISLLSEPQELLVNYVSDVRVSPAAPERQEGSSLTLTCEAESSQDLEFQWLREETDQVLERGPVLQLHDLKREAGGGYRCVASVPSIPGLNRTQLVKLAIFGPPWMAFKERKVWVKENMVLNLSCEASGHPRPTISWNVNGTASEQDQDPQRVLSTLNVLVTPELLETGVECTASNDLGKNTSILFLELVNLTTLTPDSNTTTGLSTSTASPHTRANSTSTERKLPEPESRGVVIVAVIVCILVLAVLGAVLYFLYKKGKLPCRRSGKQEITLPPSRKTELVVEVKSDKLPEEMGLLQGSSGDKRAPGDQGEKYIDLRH
# Procedure: as §1, §2
binder,measurement,setting,value
"mouse anti-human MCAM monoclonal antibody clone 1749.1.3 (antibody, V domains shown, Mouse hybridoma monoclonal antibody; also called m1749) VH: DVKLVESGGDLVKPGGSLKLSCAASGFTFSSYIMSWVRQTPEKRLEWVATISSGGSSTYYPDSVKGRFTISRDNAKNTLYLQMSSLKSEDTAMYYCTRDDDYDVKVFAYWGQGTLVTVSA VL: DIVMSQSPSSLAVSAGEKVTMNCKSSRSLLNSRIRKNYLAWYQQKPGQSPKLLIYWASTRESGVPDRFTGSGSGTDFTLTISSVQAEDLAVYYCKQSYNLLTFGAGTKLELK","mean reactivity (% of wild type MCAM), standard deviation in brackets",[1],7.1 % of WT
same,"mean reactivity (% of wild type MCAM), standard deviation in brackets",[2],7.6 % of WT
same,"mean reactivity (% of wild type MCAM), standard deviation in brackets",[3],8.7 % of WT
same,"mean reactivity (% of wild type MCAM), standard deviation in brackets",[4],9.3 % of WT
